Experimental data reported in US20260201008A1, “SECRETIN-DERIVED GLP1R SELECTIVE AGONISTS” (GUBRA A/S, priority 2023, published 2026).
Like-named read-outs stand apart in the source and are kept apart here. Numbered stars: 1 amine (or outer) side, 2 acyl side, 3 side chain; on linkers, the order of the positions; unused ones are H or OH. Square brackets hold non-standard residues; d marks the D form. Side chains are listed from the residue outwards. Ends that are not written are not given here. * marks the point of attachment. C20 diacid = O=C(O)CCCCCCCCCCCCCCCCCCC(=O)*; C18 diacid = O=C(O)CCCCCCCCCCCCCCCCC(=O)*; γGlu = O=C(O)[C@H](CCC(=O)[*:2])N[*:1]; AEEA = NCCOCCOCC(=O)O; Aib = CC(C)(N)C(=O)O

Columns and labels:
Assay in all cases: cell-based or functional assay
[1] = target: T1, human GLP-1 receptor (hGLP1R) (human, UniProt P43220 24-463)
[2] = target: T2, human secretin receptor (hSCTR) (human, UniProt P47872 23-440)
[3] = target: T1, human GLP-1 receptor (hGLP1R); remark: listed apart in the source
[4] = target: T2, human secretin receptor (hSCTR); remark: listed apart in the source
[5] = target: T1, human GLP-1 receptor (hGLP1R); remark: listed apart in the source
[6] = target: T2, human secretin receptor (hSCTR); remark: listed apart in the source

T2 sequence (P47872 23-440): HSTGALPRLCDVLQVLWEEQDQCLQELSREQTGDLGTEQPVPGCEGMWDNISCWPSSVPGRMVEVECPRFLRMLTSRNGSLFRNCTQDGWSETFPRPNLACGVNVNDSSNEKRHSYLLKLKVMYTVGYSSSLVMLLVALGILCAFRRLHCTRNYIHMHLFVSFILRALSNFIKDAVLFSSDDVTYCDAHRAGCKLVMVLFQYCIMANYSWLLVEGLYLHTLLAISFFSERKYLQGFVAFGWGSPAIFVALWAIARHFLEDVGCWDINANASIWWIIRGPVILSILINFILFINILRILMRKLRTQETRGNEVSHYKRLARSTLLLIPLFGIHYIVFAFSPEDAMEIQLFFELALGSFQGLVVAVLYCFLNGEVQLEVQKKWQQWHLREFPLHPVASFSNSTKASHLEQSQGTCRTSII

Row | Binder | pEC50 hGLPR1 [1] | pEC50 hSCTR [2] | PEC50 hGLPR1 [3] | pEC50 hSCTR [4] | also measured
1 | H[Aib]EGTFTSDVSTLK([AEEA-AEEA-γGlu-C20 diacid])EEAAQQRFLEHLV-NH2 [SEQ ID NO: 39] | 10.8 -log M | 6.5 -log M |  |  | 
2 | H[Aib]EGTFTSDVSFLK([AEEA-AEEA-γGlu-C20 diacid])ETAAAQRFLEHLV-NH2 [SEQ ID NO: 44] | 10.5 -log M | 5.4 -log M |  |  | 
3 | H[Aib]EGTFTSDVSVLK([AEEA-AEEA-γGlu-C20 diacid])E[Aib]AAQQRFLEHLV-NH2 [SEQ ID NO: 40] | 10.7 -log M | 6.4 -log M |  |  | 
4 | H[Aib]EGTFTSDVSYLK([AEEA-AEEA-γGlu-C20 diacid])EEAAQQRFLEHLV-NH2 [SEQ ID NO: 47] | 10.8 -log M | 6.6 -log M |  |  | 
5 | H[Aib]EGTFTSDVSRLK([AEEA-AEEA-γGlu-C20 diacid])ETAAEQRFLEHLV-NH2 [SEQ ID NO: 34] | 10.6 -log M | 6.4 -log M |  |  | 
6 | H[Aib]EGTFTSDVSRLK([AEEA-AEEA-γGlu-C18 diacid])EGAAEQRFLQHLVAAE-NH2 [SEQ ID NO: 206] |  |  | 10.8 -log M | 5.3 -log M | 
7 | H[Aib]EGTFTSDVSRLK([AEEA-AEEA-γGlu-C20 diacid])EEA[Aib]AQRFLEHLVEAA-NH2 [SEQ ID NO: 215] |  |  | 11 -log M | 6.3 -log M | 
8 | H[Aib]EGTFTSDVSRLK([AEEA-AEEA-γGlu-C20 diacid])EEAALQRFLEHLVEAA-NH2 [SEQ ID NO: 207] |  |  | 11 -log M | 8.2 -log M | 
9 | H[Aib]EGTFTSDVSRLK([AEEA-AEEA-γGlu-C18 diacid])EGAAEQRFLQHLVEAA-NH2 [SEQ ID NO: 205] |  |  | 11.1 -log M | 5.3 -log M | 
10 | H[Aib]EGTFTSDVSYLK([AEEA-AEEA-γGlu-C20 diacid])ETAATQRFLEHLV-NH2 [SEQ ID NO: 4] | 11.1 -log M | 7 -log M |  |  | 
11 | H[Aib]EGTFTSDVSELK([AEEA-AEEA-γGlu-C20 diacid])ETAA[Aib]QRFLEHLV-NH2 [SEQ ID NO: 45] | 10.7 -log M | 5.7 -log M |  |  | 
12 | H[Aib]EGTFTSDVSRLK([AEEA-AEEA-γGlu-C18 diacid])EGAAEQRFLQHLVEAE-NH2 [SEQ ID NO: 204] |  |  | 11 -log M | 5.6 -log M | 
13 | H[Aib]EGTFTSDVSRLLEEA[Aib]LQRFLEK([AEEA-AEEA-γGlu-C20 diacid])LVEAA-NH2 [SEQ ID NO: 212] |  |  | 10.7 -log M | 7.2 -log M | hGLPR1 EC50 nM (purified peptide) [5]: 0.021 nM; hGLPR1 PEC50 (purified peptide) [5]: 10.7 -log M; hSCTR EC50 nM (purified peptide) [6]: 60 nM; hSCTR pEC50 (purified peptide) [6]: 7.2 -log M
14 | H[Aib]EGTFTSDVSELK([AEEA-AEEA-γGlu-C20 diacid])EEA[Aib]LQRFLEHLVEAA-NH2 [SEQ ID NO: 210] |  |  | 11 -log M | 6.8 -log M | hGLPR1 EC50 nM (purified peptide) [5]: 0.0095 nM; hGLPR1 PEC50 (purified peptide) [5]: 11 -log M; hSCTR EC50 nM (purified peptide) [6]: 190 nM; hSCTR pEC50 (purified peptide) [6]: 6.7 -log M
15 | H[Aib]EGTFTSDVSELLEEA[Aib]LQRFLEK([AEEA-AEEA-γGlu-C20 diacid])LVEAA-NH2 [SEQ ID NO: 214] |  |  | 10.9 -log M | 6.1 -log M | 
16 | H[Aib]EGTFTSDVSVLK([AEEA-AEEA-γGlu-C20 diacid])ELAAQQRFLEHLV-NH2 [SEQ ID NO: 33] | 10.2 -log M | 6.5 -log M |  |  | 
17 | H[Aib]EGTFTSDVSYLK([AEEA-AEEA-γGlu-C20 diacid])EEA[Aib]LQRFLEHLV-NH2 (also: table footnote: C20DA or C18DA) [SEQ ID NO: 203] | 10.7 -log M | 6.7 -log M |  |  | hGLPR1 EC50 nM (purified peptide) [5]: 0.017 nM; hGLPR1 PEC50 (purified peptide) [5]: 10.8 -log M; hSCTR EC50 nM (purified peptide) [6]: 190 nM; hSCTR pEC50 (purified peptide) [6]: 6.7 -log M
18 | H[Aib]EGTFTSDVSVLK([AEEA-AEEA-γGlu-C20 diacid])ETAAQQRFLEHLV-NH2 [SEQ ID NO: 41] | 11.1 -log M | 6.9 -log M |  |  | 

Further lines, with some results ahead:

Row | pEC50 hGLPR1 [1] | pEC50 hSCTR [2] | PEC50 hGLPR1 [3] | pEC50 hSCTR [4] | Binder | also measured
19 |  |  | 10.6 -log M | 7.6 -log M | H[Aib]EGTFTSDVSRLK([AEEA-AEEA-γGlu-C20 diacid])EEA[Aib]LQRFLEHLVEAA-NH2 [SEQ ID NO: 208] | hGLPR1 EC50 nM (purified peptide) [5]: 0.022 nM; hGLPR1 PEC50 (purified peptide) [5]: 10.6 -log M; hSCTR EC50 nM (purified peptide) [6]: 24 nM; hSCTR pEC50 (purified peptide) [6]: 7.6 -log M
20 | 10.3 -log M | 5.4 -log M |  |  | H[Aib]EGTFTSDVSYLK([AEEA-AEEA-γGlu-C20 diacid])EFAA[Aib]QRFLEHLV-NH2 [SEQ ID NO: 46] | 
21 | 11.2 -log M | 7.3 -log M |  |  | H[Aib]EGTFTSDVSELK([AEEA-AEEA-γGlu-C20 diacid])EEA[Aib]LQRFLEHLV-NH2 [SEQ ID NO: 168] | hGLPR1 EC50 nM (purified peptide) [5]: 0.012 nM; hGLPR1 PEC50 (purified peptide) [5]: 10.9 -log M; hSCTR EC50 nM (purified peptide) [6]: 100 nM; hSCTR pEC50 (purified peptide) [6]: 7 -log M
22 | 10.5 -log M | 6 -log M |  |  | H[Aib]EGTFTSDVSFLK([AEEA-AEEA-γGlu-C20 diacid])EEAASQRFLEHLV-NH2 [SEQ ID NO: 38] | 
23 | 10.9 -log M | 5.7 -log M |  |  | H[Aib]EGTFTSDVSFLK([AEEA-AEEA-γGlu-C20 diacid])EEAA[Aib]QRFLEHLV-NH2 [SEQ ID NO: 37] | 
24 |  |  | 11.2 -log M | 7.1 -log M | H[Aib]EGTFTSDVSTLK([AEEA-AEEA-γGlu-C20 diacid])EEA[Aib]LQRFLEHLVEAA-NH2 [SEQ ID NO: 211] | 
25 | 10.8 -log M | 6.1 -log M |  |  | H[Aib]EGTFTSDVSVLK([AEEA-AEEA-γGlu-C20 diacid])EEAA[Aib]QRFLEHLV-NH2 [SEQ ID NO: 35] | 
26 | 11 -log M | 6.5 -log M |  |  | H[Aib]EGTFTSDVSTLK([AEEA-AEEA-γGlu-C20 diacid])E[Aib]AAAQRFLEHLV-NH2 [SEQ ID NO: 43] | 
27 | 10.8 -log M | 5.5 -log M |  |  | H[Aib]EGTFTSDVSTLK([AEEA-AEEA-γGlu-C20 diacid])ETAAEQRFLEHLV-NH2 [SEQ ID NO: 42] | 
28 | 10.5 -log M | 6.5 -log M |  |  | H[Aib]EGTFTSDVSELK([AEEA-AEEA-γGlu-C20 diacid])ELAAEQRFLEHLV-NH2 [SEQ ID NO: 36] | 
29 | 10.7 -log M | 6.9 -log M |  |  | H[Aib]EGTFTSDVSVLK([AEEA-AEEA-γGlu-C20 diacid])E[Aib]AATQRFLEHLV-NH2 [SEQ ID NO: 49] | 
30 | 10.6 -log M | 6.9 -log M |  |  | H[Aib]EGTFTSDVSYLK([AEEA-AEEA-γGlu-C20 diacid])E[Aib]AATQRFLEHLV-NH2 [SEQ ID NO: 48] | 
31 |  |  | 10.9 -log M | 6.4 -log M | H[Aib]EGTFTSDVSYLK([AEEA-AEEA-γGlu-C20 diacid])EEA[Aib]LQRFLEHLVEAA-NH2 (N-terminus assumed; SMILES CC(C)C[C@H](NC(=O)[C@H](Cc1ccccc1)NC(=O)[C@H](CCCNC(=N)N)NC(=O)[C@H](CCC(N)=O)NC(=O)[C@H](CC(C)C)NC(=O)C(C)(C)NC(=O)[C@H](C)NC(=O)[C@H](CCC(=O)O)NC(=O)[C@H](CCC(=O)O)NC(=O)[C@H](CCCCNC(=O)COCCOCCNC(=O)COCCOCCNC(=O)CC[C@H](NC(=O)CCCCCCCCCCCCCCCCCCC(=O)O)C(=O)O)NC(=O)[C@H](CC(C)C)NC(=O)[C@H](Cc1ccc(O)cc1)NC(=O)[C@H](CO)NC(=O)[C@@H](NC(=O)[C@H](CC(=O)O)NC(=O)[C@H](CO)NC(=O)[C@@H](NC(=O)[C@H](Cc1ccccc1)NC(=O)[C@@H](NC(=O)CNC(=O)[C@H](CCC(=O)O)NC(=O)C(C)(C)NC(=O)[C@@H](N)Cc1c[nH]cn1)[C@@H](C)O)[C@@H](C)O)C(C)C)C(=O)N[C@@H](CCC(=O)O)C(=O)N[C@@H](Cc1c[nH]cn1)C(=O)N[C@@H](CC(C)C)C(=O)N[C@H](C(=O)N[C@@H](CCC(=O)O)C(=O)N[C@@H](C)C(=O)N[C@@H](C)C(N)=O)C(C)C) [SEQ ID NO: 209] | hGLPR1 EC50 nM (purified peptide) [5]: 0.0098 nM; hGLPR1 PEC50 (purified peptide) [5]: 11 -log M; hSCTR EC50 nM (purified peptide) [6]: 330 nM; hSCTR pEC50 (purified peptide) [6]: 6.5 -log M
